Columns and labels:
Test in all cases: PamChip microarray peptide phosphorylation
FGR = FGR (Homo sapiens, UniProt P09769); settings: peptide substrate phosphorylated by FGR
LYN = LYN (Homo sapiens, UniProt P07948); settings: peptide substrate phosphorylated by LYN
SYK = SYK (Homo sapiens, UniProt P43405); settings: peptide substrate phosphorylated by SYK
FES^WT = target: T1, FES^WT (Homo sapiens, UniProt P07332); format: biochemical; settings: peptide substrate phosphorylated by FES - WT
T1 construct: human FES cDNA encoding residues 448–822 or human FER cDNA encoding residues 448–820 was amplified by PCR; made in house; host or cells: E. coli BL21(DE3), co-expressing YopH phosphatase

ABL1 = ABL1 (Homo sapiens, UniProt P00519); settings: peptide substrate phosphorylated by ABL1
CSK = CSK (Homo sapiens, UniProt P41240); settings: peptide substrate phosphorylated by CSK
Sequence of CSK (P41240 whole entry): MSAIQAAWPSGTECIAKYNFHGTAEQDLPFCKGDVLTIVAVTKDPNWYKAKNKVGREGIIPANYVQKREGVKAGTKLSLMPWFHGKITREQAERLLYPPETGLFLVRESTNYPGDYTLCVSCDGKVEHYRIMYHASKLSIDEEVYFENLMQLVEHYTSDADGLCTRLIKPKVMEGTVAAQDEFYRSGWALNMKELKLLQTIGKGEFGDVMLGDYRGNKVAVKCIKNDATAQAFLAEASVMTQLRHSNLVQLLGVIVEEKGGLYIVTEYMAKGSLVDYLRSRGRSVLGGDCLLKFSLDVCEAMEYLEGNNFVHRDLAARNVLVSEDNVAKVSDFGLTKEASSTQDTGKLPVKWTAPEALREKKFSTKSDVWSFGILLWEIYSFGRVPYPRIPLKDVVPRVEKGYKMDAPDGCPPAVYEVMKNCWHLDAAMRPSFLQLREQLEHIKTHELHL

Sequence of ABL1 (P00519 whole entry): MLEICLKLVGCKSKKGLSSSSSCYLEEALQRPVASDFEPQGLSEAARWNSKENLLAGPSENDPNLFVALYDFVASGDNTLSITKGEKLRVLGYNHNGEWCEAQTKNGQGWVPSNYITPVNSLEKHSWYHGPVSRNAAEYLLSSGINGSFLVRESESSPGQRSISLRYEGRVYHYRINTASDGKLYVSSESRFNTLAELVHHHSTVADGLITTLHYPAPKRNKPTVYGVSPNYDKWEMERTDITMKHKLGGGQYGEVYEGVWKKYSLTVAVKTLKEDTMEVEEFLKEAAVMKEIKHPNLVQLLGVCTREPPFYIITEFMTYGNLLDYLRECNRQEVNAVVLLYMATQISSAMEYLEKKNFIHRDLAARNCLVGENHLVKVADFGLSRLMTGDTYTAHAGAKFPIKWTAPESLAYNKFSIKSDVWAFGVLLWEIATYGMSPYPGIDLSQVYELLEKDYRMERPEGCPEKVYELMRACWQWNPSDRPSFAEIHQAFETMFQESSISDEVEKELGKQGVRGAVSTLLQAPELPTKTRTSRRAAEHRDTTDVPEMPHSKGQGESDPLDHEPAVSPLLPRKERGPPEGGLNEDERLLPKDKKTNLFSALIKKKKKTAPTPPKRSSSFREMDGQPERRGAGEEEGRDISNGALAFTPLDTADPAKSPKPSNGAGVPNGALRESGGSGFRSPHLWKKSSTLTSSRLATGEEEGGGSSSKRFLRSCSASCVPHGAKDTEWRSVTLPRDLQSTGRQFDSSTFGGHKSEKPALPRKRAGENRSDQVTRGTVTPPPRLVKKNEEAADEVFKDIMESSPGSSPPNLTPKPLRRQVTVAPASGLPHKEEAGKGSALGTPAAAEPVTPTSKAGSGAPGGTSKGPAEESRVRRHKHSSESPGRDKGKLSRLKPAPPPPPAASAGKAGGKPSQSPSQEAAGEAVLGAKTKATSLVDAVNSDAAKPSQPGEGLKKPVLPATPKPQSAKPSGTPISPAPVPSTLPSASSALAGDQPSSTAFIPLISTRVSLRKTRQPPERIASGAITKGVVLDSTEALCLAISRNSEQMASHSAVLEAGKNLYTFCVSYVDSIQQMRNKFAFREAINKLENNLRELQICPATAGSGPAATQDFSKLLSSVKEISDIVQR
T1 sequence (P07332 448-822): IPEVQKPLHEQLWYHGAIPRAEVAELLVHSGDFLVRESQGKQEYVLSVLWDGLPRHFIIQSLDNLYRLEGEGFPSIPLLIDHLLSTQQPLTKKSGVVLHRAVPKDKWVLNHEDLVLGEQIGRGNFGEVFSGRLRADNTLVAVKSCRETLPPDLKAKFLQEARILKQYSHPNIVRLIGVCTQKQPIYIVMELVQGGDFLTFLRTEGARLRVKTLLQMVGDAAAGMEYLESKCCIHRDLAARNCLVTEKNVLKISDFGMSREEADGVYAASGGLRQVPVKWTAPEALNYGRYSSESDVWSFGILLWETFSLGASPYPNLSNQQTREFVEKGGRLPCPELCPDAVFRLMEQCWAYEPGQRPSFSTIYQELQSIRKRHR
Sequence of LYN (P07948 whole entry): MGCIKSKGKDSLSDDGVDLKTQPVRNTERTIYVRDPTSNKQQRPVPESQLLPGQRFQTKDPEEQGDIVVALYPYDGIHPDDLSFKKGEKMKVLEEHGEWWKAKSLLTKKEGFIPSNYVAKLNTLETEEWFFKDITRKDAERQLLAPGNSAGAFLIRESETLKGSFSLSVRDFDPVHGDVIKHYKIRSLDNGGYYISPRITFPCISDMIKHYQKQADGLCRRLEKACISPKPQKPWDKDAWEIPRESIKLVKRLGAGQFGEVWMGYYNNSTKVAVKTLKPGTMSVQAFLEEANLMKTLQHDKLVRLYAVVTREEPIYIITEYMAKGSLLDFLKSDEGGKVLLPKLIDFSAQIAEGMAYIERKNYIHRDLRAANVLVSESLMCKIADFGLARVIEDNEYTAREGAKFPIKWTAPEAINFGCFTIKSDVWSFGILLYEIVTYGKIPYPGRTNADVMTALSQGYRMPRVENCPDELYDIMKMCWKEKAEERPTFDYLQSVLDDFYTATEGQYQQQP

MBP_259_271 (FGYGGRASDYKSA; UniProt P02686 259-271, looked up, fragment)
Relative phosphorylation (% of highest signal) (FGR): 0.634 % of highest signal
Relative phosphorylation (% of highest signal) (LYN): -0.152 % of highest signal
Relative phosphorylation (% of highest signal) (SYK): 0.9 % of highest signal
Relative phosphorylation (% of highest signal) (FES^WT): -0.152 % of highest signal
Relative phosphorylation (% of highest signal) (ABL1): -0.0479 % of highest signal
Relative phosphorylation (% of highest signal) (CSK): -0.0622 % of highest signal

EPHA2_581_593 (QLKPLKTYVDPHT; UniProt P29317 581-593, looked up, fragment)
Relative phosphorylation (% of highest signal) (FGR): -3.2 % of highest signal
Relative phosphorylation (% of highest signal) (LYN): -0.186 % of highest signal
Relative phosphorylation (% of highest signal) (SYK): -1.0 % of highest signal
Relative phosphorylation (% of highest signal) (FES^WT): -0.0404 % of highest signal
Relative phosphorylation (% of highest signal) (ABL1): -0.273 % of highest signal
Relative phosphorylation (% of highest signal) (CSK): -0.569 % of highest signal

VGFR2_1168_1180 (AQQDGKDYIVLPI; UniProt P35968 1168-1180, looked up, fragment)
Relative phosphorylation (% of highest signal) (FGR): -1.8 % of highest signal
Relative phosphorylation (% of highest signal) (LYN): 0.147 % of highest signal
Relative phosphorylation (% of highest signal) (SYK): 2.7 % of highest signal
Relative phosphorylation (% of highest signal) (FES^WT): 6.1 % of highest signal
Relative phosphorylation (% of highest signal) (ABL1): 0.014 % of highest signal
Relative phosphorylation (% of highest signal) (CSK): 0.544 % of highest signal

EPHA4_921_933 (QAIKMDRYKDNFT; UniProt P54764 921-933, looked up, fragment)
Relative phosphorylation (% of highest signal) (FGR): -1.7 % of highest signal
Relative phosphorylation (% of highest signal) (LYN): -0.126 % of highest signal
Relative phosphorylation (% of highest signal) (SYK): -0.4 % of highest signal
Relative phosphorylation (% of highest signal) (FES^WT): -0.348 % of highest signal
Relative phosphorylation (% of highest signal) (ABL1): -0.327 % of highest signal
Relative phosphorylation (% of highest signal) (CSK): -0.535 % of highest signal

STAT4_686_698 (TERGDKGYVPSVF; UniProt Q14765 686-698, looked up, fragment)
Relative phosphorylation (% of highest signal) (FGR): -4.1 % of highest signal
Relative phosphorylation (% of highest signal) (LYN): -0.165 % of highest signal
Relative phosphorylation (% of highest signal) (SYK): -1.2 % of highest signal
Relative phosphorylation (% of highest signal) (FES^WT): -0.247 % of highest signal
Relative phosphorylation (% of highest signal) (ABL1): -0.7 % of highest signal
Relative phosphorylation (% of highest signal) (CSK): -0.9 % of highest signal

NTRK2_509_521 (PVIENPQYFGITN; UniProt Q16620 509-521, looked up, fragment)
Relative phosphorylation (% of highest signal) (FGR): -1.0 % of highest signal
Relative phosphorylation (% of highest signal) (LYN): 0.113 % of highest signal
Relative phosphorylation (% of highest signal) (SYK): 0.0821 % of highest signal
Relative phosphorylation (% of highest signal) (FES^WT): -0.566 % of highest signal
Relative phosphorylation (% of highest signal) (ABL1): -0.0217 % of highest signal
Relative phosphorylation (% of highest signal) (CSK): -0.422 % of highest signal

VGFR1_1046_1058_Y1048F (DIFKNPDYVRKGD; UniProt P17948 1046-1058, looked up, variant Y1048F)
Relative phosphorylation (% of highest signal) (FGR): -2.7 % of highest signal
Relative phosphorylation (% of highest signal) (LYN): -0.0478 % of highest signal
Relative phosphorylation (% of highest signal) (SYK): 1.1 % of highest signal
Relative phosphorylation (% of highest signal) (FES^WT): -0.452 % of highest signal
Relative phosphorylation (% of highest signal) (ABL1): -0.449 % of highest signal
Relative phosphorylation (% of highest signal) (CSK): -0.9 % of highest signal

STAT6_634_646 (MGKDGRGYVPATI; UniProt P42226 634-646, looked up, fragment)
Relative phosphorylation (% of highest signal) (FGR): -4.7 % of highest signal
Relative phosphorylation (% of highest signal) (LYN): -0.3 % of highest signal
Relative phosphorylation (% of highest signal) (SYK): -2.2 % of highest signal
Relative phosphorylation (% of highest signal) (FES^WT): -0.355 % of highest signal
Relative phosphorylation (% of highest signal) (ABL1): -0.6 % of highest signal
Relative phosphorylation (% of highest signal) (CSK): -1.1 % of highest signal
